For assay [1], the target named is T1, Nucleocapsid a. a. 401–410 (Frag 5) (SARS-CoV-2 (YP_009724397 reference)).
T1 construct: SARS-CoV-2 nucleocapsid protein, residues 401-410; also called Fragment 5; WT (a.a. 401–410) peptide; source: synthetic peptide (Thermo Scientific)
T1 chain: DDFSKQLQQS
Kind of assay: ELISA; peptide competition ELISA: plate coated with 0.1 ug/ml recombinant NP overnight at 4°C; 40 μL mBG17 pre-incubated 1 h at room temperature with 40 μg (approximately 30 nMol) of a single peptide, then applied to the plate 1 h at room temperature; goat anti-mouse HRP, A450; triplicate. Conditions: both partners purified. In general terms: An ELISA detects its analyte on a solid surface through an enzyme-linked reagent.

For assay [2], the target named is T2, recombinant SARS-CoV-2 nucleocapsid protein (SARS-CoV-2 (reference sequence …, UniProt P0DTC9)).
T2 construct: SARS-CoV-2 nucleocapsid protein; also called NP; SARS-CoV-2 NP
The assay is described as above. The conditions noted are these: both partners purified.

B1: anti-SARS-CoV-2 nucleocapsid protein (NP) monoclonal mouse antibody mBG17 (recombinant) (antibody, V domains shown)
VH: EVKLEESGGGLVQPGGSMKFSCVASGFTFSDYWMNWVRQSPDKGLEWVAEIRLKSNNYATHYAASVKGRFTISRDDSKSSVYLQMNNLRAEDSGIYYCTRSAMDYWGQGTSVTVSS
VL: DIVMSQSPSSLAVSVGEKITMSCKSSQSLLYTSDQKNYLAWFQQKPGQSPKLLIFWASTRDSGVPDRFTGSGSGTDFTLTISSVKAEDLAVYYCQQFYNYPRTFGGGTKLEIK
notes: Whole antibody, detected with goat anti-mouse HRP; The scFv forms were used in calculations only; also called recombinant mBG17
On to B1, for which the binding result in assay [1] and in assay [2] was “binds” throughout.
